According to publication PMC3901001:

Target: full-length human α isoform of CaMKII (CaMKIIα), wild type (human) (UniProt Q9UQM7)
Experiment: single-molecule TIRF colocalisation; mixed with ATP in the absence of Ca2+/CaM (37°C by the DLS legend)

Chain of UniProt Q9UQM7 (Q9UQM7 whole entry, canonical isoform): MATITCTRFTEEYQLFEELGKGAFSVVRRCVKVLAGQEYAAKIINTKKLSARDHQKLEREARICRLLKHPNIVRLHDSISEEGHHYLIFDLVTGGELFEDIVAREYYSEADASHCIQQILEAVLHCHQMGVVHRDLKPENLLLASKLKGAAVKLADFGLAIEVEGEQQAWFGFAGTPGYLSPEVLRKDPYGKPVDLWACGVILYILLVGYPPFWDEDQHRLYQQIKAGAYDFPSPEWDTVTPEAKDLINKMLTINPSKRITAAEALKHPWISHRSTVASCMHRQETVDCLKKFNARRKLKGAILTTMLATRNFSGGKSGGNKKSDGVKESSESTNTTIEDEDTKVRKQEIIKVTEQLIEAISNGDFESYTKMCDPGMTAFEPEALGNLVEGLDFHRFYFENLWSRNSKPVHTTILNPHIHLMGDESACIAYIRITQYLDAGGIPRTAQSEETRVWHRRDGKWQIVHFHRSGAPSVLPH

“CaMKII^T286D, constitutively active mutant of full-length human CaMKIIα (enzyme)” was tested, and the percent colocalisation (plateau) was 60%.
